Measurements as given in the supplement of paper PMC10065799, “High-throughput profiling of sequence recognition by tyrosine kinases and SH2 domains using bacterial peptide display” (eLife, 2023).
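Also: 11-residue human phosphosite peptides and single-mutation variants displayed on the E. coli surface, counted by deep sequencing, each peptide's frequency after selection divided by its frequency in the unselected input library; frequency after pTyr selection over input frequency; kinase dosed for 20-30% of maximal phosphorylation in three min.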

The sequences below were run against MERTK (UniProt Q12866) (assay: phosphorylation enrichment, bacterial display (enrichment ratio); higher = better substrate or ligand; peptides without Tyr show the background).
Sequence of MERTK (Q12866 whole entry, looked up): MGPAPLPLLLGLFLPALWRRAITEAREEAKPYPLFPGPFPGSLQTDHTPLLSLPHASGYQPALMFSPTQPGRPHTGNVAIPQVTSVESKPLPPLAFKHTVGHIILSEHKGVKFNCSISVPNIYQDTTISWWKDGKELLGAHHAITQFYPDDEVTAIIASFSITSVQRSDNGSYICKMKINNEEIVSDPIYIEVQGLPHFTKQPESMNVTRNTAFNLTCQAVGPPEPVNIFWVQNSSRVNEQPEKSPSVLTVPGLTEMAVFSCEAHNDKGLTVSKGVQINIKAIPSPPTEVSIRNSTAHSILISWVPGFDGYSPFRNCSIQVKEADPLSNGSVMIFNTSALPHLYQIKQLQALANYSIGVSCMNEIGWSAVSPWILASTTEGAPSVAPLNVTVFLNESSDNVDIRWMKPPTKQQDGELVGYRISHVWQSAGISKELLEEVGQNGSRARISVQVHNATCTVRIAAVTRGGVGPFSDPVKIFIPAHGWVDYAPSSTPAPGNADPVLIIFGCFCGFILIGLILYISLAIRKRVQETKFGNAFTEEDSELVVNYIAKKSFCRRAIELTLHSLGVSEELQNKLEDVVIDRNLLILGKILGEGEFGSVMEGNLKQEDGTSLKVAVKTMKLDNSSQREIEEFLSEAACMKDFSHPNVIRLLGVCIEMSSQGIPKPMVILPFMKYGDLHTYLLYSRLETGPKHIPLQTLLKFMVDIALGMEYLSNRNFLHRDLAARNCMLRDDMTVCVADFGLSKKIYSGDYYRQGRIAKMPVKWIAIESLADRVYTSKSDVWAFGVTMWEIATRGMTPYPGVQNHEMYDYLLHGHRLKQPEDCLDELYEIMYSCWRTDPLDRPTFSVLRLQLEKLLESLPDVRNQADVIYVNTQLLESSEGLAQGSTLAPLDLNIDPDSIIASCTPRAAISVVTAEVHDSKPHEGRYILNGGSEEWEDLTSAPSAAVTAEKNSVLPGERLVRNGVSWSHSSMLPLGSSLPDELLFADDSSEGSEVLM
AHAGEYGAEAL [HBA1_Y25] gave a phosphorylation enrichment of 0.343. With ENELTYFCFKK [CD59_Y86_C89Y_YF] the phosphorylation enrichment was 1.16. QNTGYYYDLYG [PTPN11_Y62_D61Y] showed a phosphorylation enrichment of 15.6. SGPRRYTIAAL [TTR_Y125] gave a phosphorylation enrichment of 0.428. With CSEEMYCLMLQ [RET_Y981_R982C] the phosphorylation enrichment was 4.4. In the case of MSLDQYSPSFP [FGFR1_Y776_P772S], the phosphorylation enrichment is reported as 0.44. For QQTYTYDSGIH [JUP_Y22], the phosphorylation enrichment was 3.33. For KNKKDYFDMFE [SLC26A3_Y526_YF], the phosphorylation enrichment was 0.568. With KNEVLYDGENH [ARFGEF1_Y314] the phosphorylation enrichment was 0.398. WVYNHYRWFIW [BRCA2_Y2624_I2627F] gave a phosphorylation enrichment of 0.418. EQWRAYLEGTC [HLA-C_Y183_L180W] was tested, and the phosphorylation enrichment was 0.437. For DSRRDYVSQFE [APOA1_Y53_G50R], the phosphorylation enrichment was 0.464. YIILIYAMKKK [SLCO1B1_Y645] was tested, and the phosphorylation enrichment was 0.416. Sequence VDSTEYEVASQ [SLC7A7_Y7] has a phosphorylation enrichment of 0.436. Sequence NVPILYTASQA [CTNNA1_Y222] has a phosphorylation enrichment of 0.687. Sequence LARDMHDKEYY [MET_Y1230_Y1230H] has a phosphorylation enrichment of 0.404. CTTIHYNFMCI [TP53_Y234_N239I_YF] gave a phosphorylation enrichment of 0.392. Sequence FVHDNYVIQRT [CPS1_Y1450_R1453Q] has a phosphorylation enrichment of 0.469. Work on EFTPLYPMLFG [SCLY_Y280] yielded a phosphorylation enrichment of 2.6. Work on SKQGKYLNWDA [ATM_Y54] yielded a phosphorylation enrichment of 0.399. With GKFHMYVAVWT [F13A1_Y161_R159H] the phosphorylation enrichment was 0.351. NKKHHYRELPV [ERN2_Y860] gave a phosphorylation enrichment of 0.795. VGGRIYTDDGL [PKLR_Y218_I219T] gave a phosphorylation enrichment of 0.37. GGKFSYLKVGH [GRM3_Y480_YF] showed a phosphorylation enrichment of 0.463. RIVEIYTRRLQ [GCH1_Y175_S176T] was tested, and the phosphorylation enrichment was 0.605. FKEDPYLVVNP [MCM6_Y810_E806K_YF] gave a phosphorylation enrichment of 0.449. With SPDMLYQYLKQ [RPAP3_Y567] the phosphorylation enrichment was 7.39. LTSKPYAFTAR [NDUFS1_Y236] was tested, and the phosphorylation enrichment was 0.649. In the case of KPGLKYVTYGN [GALNTL5_Y404], the phosphorylation enrichment is reported as 0.345. With GESKDYALHVG [SVIL_Y185] the phosphorylation enrichment was 0.468. With NPQKPYFIRLF [WAS_Y83_S82P_YF] the phosphorylation enrichment was 0.423. In the case of GFILMYDITNE [RAB3C_Y110], the phosphorylation enrichment is reported as 0.678. KKCTTYIDCDL [ASPA_Y64_R63T] gave a phosphorylation enrichment of 0.391.

These sequences were tested on Fer (mouse) in the same assay as above.
AHAGEYGAEAL [HBA1_Y25] showed a phosphorylation enrichment of 0.382. ENELTYFCFKK [CD59_Y86_C89Y_YF] was tested, and the phosphorylation enrichment was 0.541. QNTGYYYDLYG [PTPN11_Y62_D61Y] was tested, and the phosphorylation enrichment was 4.32. SGPRRYTIAAL [TTR_Y125] was tested, and the phosphorylation enrichment was 0.383. For CSEEMYCLMLQ [RET_Y981_R982C], the phosphorylation enrichment was 6.9. MSLDQYSPSFP [FGFR1_Y776_P772S] was tested, and the phosphorylation enrichment was 0.429. Work on QQTYTYDSGIH [JUP_Y22] yielded a phosphorylation enrichment of 0.454. In the case of KNKKDYFDMFE [SLC26A3_Y526_YF], the phosphorylation enrichment is reported as 0.418. With KNEVLYDGENH [ARFGEF1_Y314] the phosphorylation enrichment was 0.401. Sequence WVYNHYRWFIW [BRCA2_Y2624_I2627F] has a phosphorylation enrichment of 0.49. Work on EQWRAYLEGTC [HLA-C_Y183_L180W] yielded a phosphorylation enrichment of 0.636. For DSRRDYVSQFE [APOA1_Y53_G50R], the phosphorylation enrichment was 0.387. YIILIYAMKKK [SLCO1B1_Y645] gave a phosphorylation enrichment of 0.399. VDSTEYEVASQ [SLC7A7_Y7] showed a phosphorylation enrichment of 0.598. With NVPILYTASQA [CTNNA1_Y222] the phosphorylation enrichment was 0.472. LARDMHDKEYY [MET_Y1230_Y1230H] showed a phosphorylation enrichment of 0.426. In the case of CTTIHYNFMCI [TP53_Y234_N239I_YF], the phosphorylation enrichment is reported as 0.706. FVHDNYVIQRT [CPS1_Y1450_R1453Q] gave a phosphorylation enrichment of 0.694. With EFTPLYPMLFG [SCLY_Y280] the phosphorylation enrichment was 0.458. With SKQGKYLNWDA [ATM_Y54] the phosphorylation enrichment was 0.454. For GKFHMYVAVWT [F13A1_Y161_R159H], the phosphorylation enrichment was 0.445. For NKKHHYRELPV [ERN2_Y860], the phosphorylation enrichment was 1.22. With VGGRIYTDDGL [PKLR_Y218_I219T] the phosphorylation enrichment was 0.463. In the case of GGKFSYLKVGH [GRM3_Y480_YF], the phosphorylation enrichment is reported as 0.344. With RIVEIYTRRLQ [GCH1_Y175_S176T] the phosphorylation enrichment was 0.436. Sequence FKEDPYLVVNP [MCM6_Y810_E806K_YF] has a phosphorylation enrichment of 0.531. SPDMLYQYLKQ [RPAP3_Y567] was tested, and the phosphorylation enrichment was 11.6. For LTSKPYAFTAR [NDUFS1_Y236], the phosphorylation enrichment was 0.591. KPGLKYVTYGN [GALNTL5_Y404] was tested, and the phosphorylation enrichment was 0.379. For GESKDYALHVG [SVIL_Y185], the phosphorylation enrichment was 0.436. For NPQKPYFIRLF [WAS_Y83_S82P_YF], the phosphorylation enrichment was 0.457. GFILMYDITNE [RAB3C_Y110] gave a phosphorylation enrichment of 0.692. For KKCTTYIDCDL [ASPA_Y64_R63T], the phosphorylation enrichment was 0.713.
